{"source": "patent US20100136594", "key": {"[1]": {"molecular_target": "T1, Dipeptide substrate Gly-Arg labeled with alpha-methylcoumarin (AMC)", "T1 chain": "GR"}, "[2]": {"molecular_target": "T2, 20-mer peptide substrate GEIIGGTECKPHSRPYMAYL (SEQ ID NO: 1)", "T2 chain": "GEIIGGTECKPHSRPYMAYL"}}}
{"protein": "Dipeptidyl peptidase I (DPPI) (protein) chain 1: not shown chain 2: LPTSWDWRNVHGINFVSPVRNQASCGSCYSFASMGMLEARIRILTNNSQTPILSPQEVVSCSQYAQGCEGGFPYLIAGKYAQDFGLVEEACFPYTGTDSPCKMKEDCFRYYSSEYHYVGGFYGGCNEALMKLELVHHGPMAVAFEVYDDFLHYKKGIYHHTGLR chain 3: not shown", "values": [{"measurement": "KM", "setting": "[1]", "value": 64, "unit": "µM"}, {"measurement": "kcat (Mmin^-1)", "setting": "[1]", "value": 94.5, "unit": "s⁻¹"}, {"measurement": "KM", "setting": "[2]", "value": 62, "unit": "µM"}, {"measurement": "Kcat", "setting": "[2]", "value": "about 62 µM, 1.15 sec^-1, and 1.95×10^4 M^-1sec^-1, respectively"}, {"measurement": "kcat (Mmin^-1)", "setting": "[2]", "value": 1.15, "unit": "s⁻¹"}]}
